Non-standard residues stand in square brackets, D forms with d. Aib = CC(C)(N)C(=O)O
B1: Compound 10: Hy-H-Aib-DGSFSDELNTILDGKAARDFINWLIQTK-NH2 (peptide)
peptide: H-H[Aib]DGSFSDELNTILDGKAARDFINWLIQTK-NH2
SMILES: CC[C@H](C)[C@H](NC(=O)[C@H](Cc1ccccc1)NC(=O)[C@H](CC(=O)O)NC(=O)[C@H](CCCNC(=N)N)NC(=O)[C@H](C)NC(=O)[C@H](C)NC(=O)[C@H](CCCCN)NC(=O)CNC(=O)[C@H](CC(=O)O)NC(=O)[C@H](CC(C)C)NC(=O)[C@@H](NC(=O)[C@@H](NC(=O)[C@H](CC(N)=O)NC(=O)[C@H](CC(C)C)NC(=O)[C@H](CCC(=O)O)NC(=O)[C@H](CC(=O)O)NC(=O)[C@H](CO)NC(=O)[C@H](Cc1ccccc1)NC(=O)[C@H](CO)NC(=O)CNC(=O)[C@H](CC(=O)O)NC(=O)C(C)(C)NC(=O)[C@@H](N)Cc1c[nH]cn1)[C@@H](C)O)[C@@H](C)CC)C(=O)N[C@@H](CC(N)=O)C(=O)N[C@@H](Cc1c[nH]c2ccccc12)C(=O)N[C@@H](CC(C)C)C(=O)N[C@H](C(=O)N[C@@H](CCC(N)=O)C(=O)N[C@H](C(=O)N[C@@H](CCCCN)C(N)=O)[C@@H](C)O)[C@@H](C)CC
B2: Compound 1: Hy-H-Aib-DGSFSDEMNTILDNQAARDFINWLIQTKITD-OH (peptide)
peptide: H-H[Aib]DGSFSDEMNTILDNQAARDFINWLIQTKITD-OH
SMILES: CC[C@H](C)[C@H](NC(=O)[C@H](Cc1ccccc1)NC(=O)[C@H](CC(=O)O)NC(=O)[C@H](CCCNC(=N)N)NC(=O)[C@H](C)NC(=O)[C@H](C)NC(=O)[C@H](CCC(N)=O)NC(=O)[C@H](CC(N)=O)NC(=O)[C@H](CC(=O)O)NC(=O)[C@H](CC(C)C)NC(=O)[C@@H](NC(=O)[C@@H](NC(=O)[C@H](CC(N)=O)NC(=O)[C@H](CCSC)NC(=O)[C@H](CCC(=O)O)NC(=O)[C@H](CC(=O)O)NC(=O)[C@H](CO)NC(=O)[C@H](Cc1ccccc1)NC(=O)[C@H](CO)NC(=O)CNC(=O)[C@H](CC(=O)O)NC(=O)C(C)(C)NC(=O)[C@@H](N)Cc1c[nH]cn1)[C@@H](C)O)[C@@H](C)CC)C(=O)N[C@@H](CC(N)=O)C(=O)N[C@@H](Cc1c[nH]c2ccccc12)C(=O)N[C@@H](CC(C)C)C(=O)N[C@H](C(=O)N[C@@H](CCC(N)=O)C(=O)N[C@H](C(=O)N[C@@H](CCCCN)C(=O)N[C@H](C(=O)N[C@H](C(=O)N[C@@H](CC(=O)O)C(=O)O)[C@@H](C)O)[C@@H](C)CC)[C@@H](C)O)[C@@H](C)CC

molecular target: human glucagon-like peptide 1 receptor (GLP-1R) (human, UniProt P43220 24-463); test: cell-based or functional assay

Going from H-HGEGSFSSDLSTILEGKAARDFIEWLIQTKITD-OH [Compound 13: Hy-HGEGSFSSDLSTILEGKAARDFIEWLIQTKITD-OH] to B1, the “GLP-1R EC50 (nM), cAMP AlphaScreen on HEK293 cells expressing the receptor” value (shortened to “GLP-1R EC50 (nM), cAMP AlphaScreen”) falls from 18 nM to 0.03 nM (600-fold).

First: H-HGEGTFTSDLSTILENKAARDFIEWLIQTKITD-OH [Compound 8: Hy-HGEGTFTSDLSTILENKAARDFIEWLIQTKITD-OH]
Second: H-HGDGSFSSELATILDGKAARDFINWLIQTKITD-OH [Compound 7: Hy-HGDGSFSSELATILDGKAARDFINWLIQTKITD-OH]
The “GLP-1R EC50 (nM), cAMP AlphaScreen” value of the first is 21-fold higher: 16 nM for the first, 0.78 nM for the second.

Going from H-HGEGSFSSDLSTILENKAARDFIEWLIQTKITD-OH [Compound 9: Hy-HGEGSFSSDLSTILENKAARDFIEWLIQTKITD-OH] to H-HGEGTFTSDLSKQMEGQAVRDFIEWLIQTKITD-OH [Compound 5: Hy-HGEGTFTSDLSKQMEGQAVRDFIEWLIQTKITD-OH], the “GLP-1R EC50 (nM), cAMP AlphaScreen” value falls from 9.1 nM to 1 nM (9.1-fold).

First: H-HGDGSFSSELATILDGQAARDFIAWLIQTKITD-OH [Compound 11: Hy-HGDGSFSSELATILDGQAARDFIAWLIQTKITD-OH]
Second: H-HGDGSFSDEMNTILDNKAARDFINWLIQTKITD-OH [Compound 2: Hy-HGDGSFSDEMNTILDNKAARDFINWLIQTKITD-OH]
The “GLP-1R EC50 (nM), cAMP AlphaScreen” value of the first is 230-fold lower: 0.34 nM for the first, 77 nM for the second.

Compared with H-HGDGSFSSEMNTILDSQAARDFINWLIQTKITD-OH [Compound 4: Hy-HGDGSFSSEMNTILDSQAARDFINWLIQTKITD-OH], B2 is 1.8-fold higher in “GLP-1R EC50 (nM), cAMP AlphaScreen” value: 25 nM for the first, 44 nM for the second.

H-HGEGTFTSDLSKQMESKAARDFIEWLIQTKITD-OH [Compound 6: Hy-HGEGTFTSDLSKQMESKAARDFIEWLIQTKITD-OH] was tested, and the “GLP-1R EC50 (nM), cAMP AlphaScreen” value was 1.1 nM.

molecular target: T1, human GLP-2 receptor (hGLP2-R), splice variant rs17681684 (human, UniProt O95838 1-553); test: cell-based or functional assay
T1 sequence (looked up): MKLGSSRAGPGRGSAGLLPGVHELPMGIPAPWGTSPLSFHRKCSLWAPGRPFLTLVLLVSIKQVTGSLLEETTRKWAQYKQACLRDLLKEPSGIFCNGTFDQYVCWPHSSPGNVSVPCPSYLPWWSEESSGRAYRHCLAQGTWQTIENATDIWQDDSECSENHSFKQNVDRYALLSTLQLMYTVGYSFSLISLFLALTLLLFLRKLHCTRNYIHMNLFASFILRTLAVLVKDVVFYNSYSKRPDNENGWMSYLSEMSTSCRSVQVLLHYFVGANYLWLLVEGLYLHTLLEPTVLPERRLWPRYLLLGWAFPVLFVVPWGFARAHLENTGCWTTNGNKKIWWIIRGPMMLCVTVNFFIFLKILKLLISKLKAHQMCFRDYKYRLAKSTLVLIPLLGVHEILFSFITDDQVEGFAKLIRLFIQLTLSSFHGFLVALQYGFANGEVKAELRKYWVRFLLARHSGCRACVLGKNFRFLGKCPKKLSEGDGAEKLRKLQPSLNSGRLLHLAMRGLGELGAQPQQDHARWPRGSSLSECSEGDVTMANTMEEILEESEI

Compared with H-HGEGSFSSDLSTILEGKAARDFIEWLIQTKITD-OH [Compound 13: Hy-HGEGSFSSDLSTILEGKAARDFIEWLIQTKITD-OH], B1 is 39-fold higher in “GLP-2R EC50 (nM), cAMP AlphaScreen on HEK293 cells expressing the receptor” value (“GLP-2R EC50 (nM), cAMP AlphaScreen” for short): 0.1 nM for the first, 3.9 nM for the second.

Going from H-HGEGTFTSDLSTILENKAARDFIEWLIQTKITD-OH [Compound 8: Hy-HGEGTFTSDLSTILENKAARDFIEWLIQTKITD-OH] to H-HGDGSFSSELATILDGKAARDFINWLIQTKITD-OH [Compound 7: Hy-HGDGSFSSELATILDGKAARDFINWLIQTKITD-OH], the “GLP-2R EC50 (nM), cAMP AlphaScreen” value rises from 0.008 nM to 0.2 nM (25-fold).

H-HGEGSFSSDLSTILENKAARDFIEWLIQTKITD-OH [Compound 9: Hy-HGEGSFSSDLSTILENKAARDFIEWLIQTKITD-OH] and H-HGEGTFTSDLSKQMEGQAVRDFIEWLIQTKITD-OH [Compound 5: Hy-HGEGTFTSDLSKQMEGQAVRDFIEWLIQTKITD-OH] are the same in “GLP-2R EC50 (nM), cAMP AlphaScreen” value: 0.2 nM for the first, 0.2 nM for the second.

First: H-HGDGSFSSELATILDGQAARDFIAWLIQTKITD-OH [Compound 11: Hy-HGDGSFSSELATILDGQAARDFIAWLIQTKITD-OH]
Second: H-HGDGSFSDEMNTILDNKAARDFINWLIQTKITD-OH [Compound 2: Hy-HGDGSFSDEMNTILDNKAARDFINWLIQTKITD-OH]
The “GLP-2R EC50 (nM), cAMP AlphaScreen” value of the first is 10-fold higher: 0.2 nM for the first, 0.02 nM for the second.

Going from H-HGDGSFSSEMNTILDSQAARDFINWLIQTKITD-OH [Compound 4: Hy-HGDGSFSSEMNTILDSQAARDFINWLIQTKITD-OH] to B2, the “GLP-2R EC50 (nM), cAMP AlphaScreen” value rises from 0.06 nM to 0.12 nM (2-fold).

molecular target: human GLP-2 receptor (hGLP2-R), splice variant rs17681684 (human) (UniProt O95838); test: cell-based or functional assay

For “GLP-1 (from UniProt P01275 98-127) (peptide)”, the GLP-2R EC50 (nM), cAMP AlphaScreen on HEK293 cells expressing the receptor was > 1000 nM.

Source: patent US20150125431A1 (ZEALAND PHARMA A S, published 2015)
